Test system: peptide library, one residue held at a place counted from the S/T acceptor
Assay: relative phosphorylation of the sub-library (ratio to the mean residue at this position); higher = residue favoured
Summary of the method: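 Relative sub-library phosphorylation is the ratio of each sub-library's signal to the mean residue at that position. The signal came from phosphorimaging of spots on streptavidin membranes, quantified by densitometry, after purified recombinant kinases reacted with biotinylated degenerate peptide sub-libraries in 384-well plates. Reactions held 50 μM peptide and 50 μM ATP spiked with γ-32P-ATP for 90 min under kinase-specific conditions.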

Sequence of WNK4, construct: aa1-444, human (Q96J92 1-444, looked up): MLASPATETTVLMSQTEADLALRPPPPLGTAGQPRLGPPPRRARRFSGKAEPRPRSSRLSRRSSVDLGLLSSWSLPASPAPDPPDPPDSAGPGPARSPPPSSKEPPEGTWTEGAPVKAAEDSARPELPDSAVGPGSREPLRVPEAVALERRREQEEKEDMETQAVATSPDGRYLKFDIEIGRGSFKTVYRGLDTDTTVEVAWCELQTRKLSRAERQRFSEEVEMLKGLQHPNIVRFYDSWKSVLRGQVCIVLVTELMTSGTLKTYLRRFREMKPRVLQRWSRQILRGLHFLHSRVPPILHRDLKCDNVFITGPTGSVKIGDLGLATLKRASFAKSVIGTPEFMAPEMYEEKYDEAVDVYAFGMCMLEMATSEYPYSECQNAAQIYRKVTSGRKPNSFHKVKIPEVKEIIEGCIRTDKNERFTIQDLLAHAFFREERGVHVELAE

WNK4, construct: aa1-444, human (from UniProt Q96J92)
relative phosphorylation
Conditions	at +1	at +2	at +3	at +4	at -1	at -2	at -3	at -4	at -5
A fixed	0.658	0.979	0.693	0.885	1.14	1.49	0.929	0.894	0.916
D fixed	0.249	0.57	0.62	0.54	0.287	0.305	0.389	0.579	0.489
E fixed	0.247	0.452	0.518	0.638	0.467	0.305	0.524	0.615	0.565
F fixed	1.13	0.977	2.1	1.3	0.788	0.821	0.748	0.864	1.21
G fixed	0.88	1.12	0.755	0.865	1.18	2.7	1.06	0.973	0.89
H fixed	0.813	0.973	1.35	1.12	1.05	1.54	1.16	1.21	1.21
I fixed	1.2	1.79	0.919	1.24	0.796	0.754	0.947	0.9	1.07
K fixed	0.918	0.872	1.06	1.29	1.66	1.03	1.64	1.6	1.27
L fixed	1.42	1.24	1.02	0.92	0.833	0.637	0.88	0.79	1.14
M fixed	1.96	1.31	1.04	1.1	1.58	0.708	1.02	0.924	0.986
N fixed	0.945	0.664	0.691	0.811	0.636	0.614	0.746	0.867	0.807
P fixed	0.242	0.318	0.514	0.713	0.452	1.31	0.93	0.674	0.628
Q fixed	1.17	0.522	0.565	0.673	0.952	0.573	0.741	0.88	0.639
R fixed	1.87	2.16	1.22	1.42	2.68	1.74	2.66	2.19	1.7
V fixed	0.973	1.16	0.848	0.969	0.812	0.972	0.959	0.877	0.891
W fixed	0.975	0.85	1.63	1.32	0.637	0.662	0.709	1.04	1.25
Y fixed	1.35	1.03	1.46	1.19	1.05	0.828	0.963	1.13	1.33
pThr fixed	0.386	0.407	0.388	0.617	0.444	0.683	0.809	0.732	0.731
pTyr fixed	0.565	0.537	0.612	0.674	0.727	0.471	0.708	0.527	0.764

Source: the supplement of paper PMC9876800
